Measurements published in US20180194851A1 (Pfizer, published 2018).
One block for each binder: values may come before it.

How the values were obtained:
[1] = target: T1, Recombinant human 4-1BB/Fc Chimera (R&D Systems #838-4B) (human, UniProt Q07011 24-186); experiment: ELISA on directly coated human 4-1BB/Fc
T1 construct: Bought protein; also called Human 4-1BB IgG1Fc chimera; not shown: Factor Xa-cleavable junction, human IgG1 Fc and 6xHistidine tag of the bought chimera

[2] = target: T2, human 4-1BB on cells (human, UniProt Q07011 18-255); experiment: FACS on HEK293 cells expressing human 4-1BB
T2 construct: Expressed on stably transfected HEK293/HEK293T cells, transduced 300-19 cells or PHA stimulated human PBMC; also called h41BB; hu4-1BB

[3] = target: T3, human 4-1BB (recombinant antigen, construct not stated) (human, UniProt Q07011 24-186); experiment: SPR (Biacore 3000), Fab analyte on amine-coupled human 4-1BB
T3 construct: It may be the 4-1BB/Fc chimera; also called CD137/HUMAN 4-1BB; unlabeled human 4-1BB

[4] = target: T3, human 4-1BB (recombinant antigen, …); experiment: solution equilibrium titration (SET), MSD electrochemiluminescence
[5] = target: T2, human 4-1BB on cells; experiment: FACS on transfected cells
[6] = target: T4, Hu41BB N&E.5 (human, UniProt Q07011 18-255); experiment: FACS dose response on 300-19 cell pools
T4 construct: Human-to-dog mutant of the human 4-1BB extracellular domain, expressed on transduced 300-19 cells; also called 4-1BB Mutant N&E.5
T4 chain: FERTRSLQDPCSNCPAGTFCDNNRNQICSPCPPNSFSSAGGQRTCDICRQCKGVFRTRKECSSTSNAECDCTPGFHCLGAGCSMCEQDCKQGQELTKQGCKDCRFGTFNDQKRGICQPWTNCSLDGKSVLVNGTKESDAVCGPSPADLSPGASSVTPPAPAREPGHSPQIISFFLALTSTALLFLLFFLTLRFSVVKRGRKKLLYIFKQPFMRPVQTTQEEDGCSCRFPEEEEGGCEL

[7] = target: T5, CD40 on 300.19 cells (UniProt P25942 21-277, limits assumed); experiment: FACS on 300.19 cells expressing CD40
T5 construct: whole, on cells; also called TNFRSF5; 300.19 CD40
T5 sequence (P25942 21-277 limits assumed): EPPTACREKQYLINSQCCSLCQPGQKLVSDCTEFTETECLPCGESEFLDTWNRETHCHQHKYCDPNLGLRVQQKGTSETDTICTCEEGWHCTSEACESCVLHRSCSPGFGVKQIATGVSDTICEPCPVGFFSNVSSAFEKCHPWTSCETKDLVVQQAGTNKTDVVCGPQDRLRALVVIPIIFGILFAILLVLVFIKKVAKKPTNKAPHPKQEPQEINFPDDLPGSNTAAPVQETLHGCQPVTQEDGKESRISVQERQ

[8] = target: T6, OX-40 on 300.19 cells (UniProt P43489 29-277, limits assumed); experiment: FACS on 300.19 cells expressing OX-40
T6 construct: whole, on cells; also called CD134; TNFRSF4
T6 sequence (looked up): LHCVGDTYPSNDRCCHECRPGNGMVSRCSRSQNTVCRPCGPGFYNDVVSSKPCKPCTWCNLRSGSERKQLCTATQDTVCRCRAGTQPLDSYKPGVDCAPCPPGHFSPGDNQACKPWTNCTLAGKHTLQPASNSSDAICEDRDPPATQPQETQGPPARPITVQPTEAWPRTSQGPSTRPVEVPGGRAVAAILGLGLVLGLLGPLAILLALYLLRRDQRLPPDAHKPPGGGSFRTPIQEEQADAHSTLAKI

[9] = target: T1, Recombinant human 4-1BB/Fc Chimera (R&D …); experiment: ELISA on coated human 4-1BB IgG1Fc chimera
[10] = target: T1, Recombinant human 4-1BB/Fc Chimera (R&D …); experiment: ELISA on directly coated human 4-1BB/Fc, IgG1
[11] = target: T2, human 4-1BB on cells; experiment: FACS on HEK293T cells expressing human 4-1BB, IgG1
[12] = target: T7, Hu41BB N&E (human, UniProt Q07011 18-255); experiment: FACS, 100 nM antibody, transduced 300-19 cell pools
T7 construct: Human-to-dog mutant of the human 4-1BB extracellular domain, expressed on transduced 300-19 cells
T7 chain: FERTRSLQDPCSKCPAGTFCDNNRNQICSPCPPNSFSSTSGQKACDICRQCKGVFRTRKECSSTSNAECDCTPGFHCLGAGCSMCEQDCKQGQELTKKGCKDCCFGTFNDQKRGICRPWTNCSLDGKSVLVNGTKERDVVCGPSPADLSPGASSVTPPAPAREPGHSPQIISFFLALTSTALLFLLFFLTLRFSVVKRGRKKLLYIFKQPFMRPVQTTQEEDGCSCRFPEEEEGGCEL

[13] = target: T8, Hu41BB N&E.1 (human, UniProt Q07011 18-255); experiment: as above
T8 construct: Human-to-dog mutant of the human 4-1BB extracellular domain, expressed on transduced 300-19 cells
T8 chain: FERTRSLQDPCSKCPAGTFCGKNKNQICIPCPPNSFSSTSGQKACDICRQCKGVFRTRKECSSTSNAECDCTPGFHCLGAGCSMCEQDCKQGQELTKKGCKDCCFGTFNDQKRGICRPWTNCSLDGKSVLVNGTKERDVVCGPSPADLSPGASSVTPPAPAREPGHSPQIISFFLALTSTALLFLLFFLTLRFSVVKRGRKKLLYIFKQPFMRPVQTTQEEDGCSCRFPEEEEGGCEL

[14] = target: T9, Hu41BB N&E.2 (human, UniProt Q07011 18-255); experiment: as above
T9 construct: Human-to-dog mutant of the human 4-1BB extracellular domain, expressed on transduced 300-19 cells
T9 chain: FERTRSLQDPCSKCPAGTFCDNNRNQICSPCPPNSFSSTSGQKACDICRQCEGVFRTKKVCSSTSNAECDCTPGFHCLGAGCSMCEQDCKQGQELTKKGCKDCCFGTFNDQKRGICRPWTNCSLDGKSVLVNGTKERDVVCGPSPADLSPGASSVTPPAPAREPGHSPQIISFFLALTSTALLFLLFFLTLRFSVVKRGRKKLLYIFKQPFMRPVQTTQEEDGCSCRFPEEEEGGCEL

[15] = target: T10, Hu41BB N&E.3 (human, UniProt Q07011 18-255); experiment: as above
T10 construct: Human-to-dog mutant of the human 4-1BB extracellular domain, expressed on transduced 300-19 cells
T10 chain: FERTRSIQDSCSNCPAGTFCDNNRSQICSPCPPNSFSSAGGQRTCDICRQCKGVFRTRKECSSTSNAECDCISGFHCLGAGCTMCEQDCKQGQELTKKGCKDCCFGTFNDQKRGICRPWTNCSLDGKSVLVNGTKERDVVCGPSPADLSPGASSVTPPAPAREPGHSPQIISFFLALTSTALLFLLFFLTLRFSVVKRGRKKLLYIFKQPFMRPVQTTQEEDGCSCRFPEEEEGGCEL

[16] = target: T11, Hu41BB N&E.4 (human, UniProt Q07011 18-255); experiment: as above
T11 construct: Human-to-dog mutant of the human 4-1BB extracellular domain, expressed on transduced 300-19 cells
T11 chain: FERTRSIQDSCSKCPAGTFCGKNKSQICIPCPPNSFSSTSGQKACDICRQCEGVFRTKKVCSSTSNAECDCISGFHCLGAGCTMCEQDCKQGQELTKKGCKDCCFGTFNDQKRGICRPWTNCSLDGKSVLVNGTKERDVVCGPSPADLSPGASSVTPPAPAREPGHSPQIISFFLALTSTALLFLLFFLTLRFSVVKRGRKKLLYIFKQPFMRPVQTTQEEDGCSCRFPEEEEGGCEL

[17] = target: T12, Hu41BB N&E.6 (human, UniProt Q07011 18-255); experiment: as above
T12 construct: Human-to-dog mutant of the human 4-1BB extracellular domain, expressed on transduced 300-19 cells
T12 chain: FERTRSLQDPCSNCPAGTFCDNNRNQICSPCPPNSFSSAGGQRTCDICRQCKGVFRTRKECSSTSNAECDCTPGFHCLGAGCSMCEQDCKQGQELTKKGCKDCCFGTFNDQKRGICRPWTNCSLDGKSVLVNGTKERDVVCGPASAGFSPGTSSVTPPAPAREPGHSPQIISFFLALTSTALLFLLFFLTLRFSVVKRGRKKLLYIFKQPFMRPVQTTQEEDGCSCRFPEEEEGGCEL

[18] = target: T13, human 4-1BB extracellular portion, amino acids 24-186 (Fc cleaved off with Factor Xa) (human, UniProt Q07011 24-186); experiment: SPR (Biacore 3000), antibody amine-coupled, 4-1BB 24-186 as analyte, 25 C
T13 construct: Made from the R&D Systems 4-1BB/Fc chimera by Factor Xa cleavage; also called recombinant human 4-1BB; the 4-1BB

[19] = target: T1, Recombinant human 4-1BB/Fc Chimera (R&D …); experiment: ligand competition ELISA, 4-1BB_IgG1Fc to plate-bound 4-1BBL (competitor 4-1BBL)
[20] = target: T2, human 4-1BB on cells; experiment: FACS dose response, Alexa Fluor 647 labelled antibody on 300-19 cells expressing human 4-1BB
[21] = target: T4, Hu41BB N&E.5; experiment: FACS dose response, Alexa Fluor 647 labelled antibody on 300-19 cells expressing mutant N&E.5

EC50 [1]: 0.7 nM | EC50 [2]: 0.9 nM | Kd [3]: 0.5 nM | Kd [4]: 0.046 nM
B1: Fab-7480 (Fab, V domains shown)
VH: QVQLVQSGAEVKKPGESLKISCKGSGYSFSTYWISWVRQMPGKGLEWMGKIYPGDSYTNYSPSFQGQVTISADKSISTAYLQWSSLKASDTAMYYCARGYGIFDYWGQGTLVTVSS
VL: DIELTQPPSVSVAPGQTARISCSGDNIGDQYAHWYQQKPGQAPVVVIYQDKNRPSGIPERFSGSNSGNTATLTISGTQAEDEADYYCATYTGFGSLAVFGGGTKLTVL

fold selectivity for 4-1BB versus OX-40 and CD40 [5]: ≥ 100 fold | fold decrease in binding against human 4-1BB [6]: > 5 fold | binding result [7]: no binding (tested: 1000 nM) | binding result [8]: no binding (tested: 1000 nM) | EC50 [9]: 0.076 nM | EC50 [10]: 0.7 nM | EC50 [11]: 0.6 nM | binding result [12]: binds | binding result [13]: binds | binding result [14]: binds | binding result [15]: binds | binding result [16]: binds | binding result [17]: binds | Kd [18]: 0.42 nM | koff [18]: 0.00015 s⁻¹ | kon [18]: 360000 M⁻¹ s⁻¹ | t1/2 [18]: 1.37 h | % max inhibition [19]: 96% | IC50 [19]: 0.122 nM | EC50 [20]: 1.68 nM | EC50 [21]: 12.3 nM
B2: MOR-7480 (IgG1) (antibody, V domains shown)
VH: QVQLVQSGAEVKKPGESLKISCKGSGYSFSTYWISWVRQMPGKGLEWMGKIYPGDSYTNYSPSFQGQVTISADKSISTAYLQWSSLKASDTAMYYCARGYGIFDYWGQGTLVTVSS
VL: DIELTQPPSVSVAPGQTARISCSGDNIGDQYAHWYQQKPGQAPVVVIYQDKNRPSGIPERFSGSNSGNTATLTISGTQAEDEADYYCATYTGFGSLAVFGGGTKLTVL
notes: Human IgG1 format, lambda light chain
